Measurements taken from paper PMC10943695, “Neutrophil elastase as a versatile cleavage enzyme for activation of αvβ3 integrin-targeted small molecule drug conjugates with different payload classes in the tumor microenvironment” (Frontiers in Pharmacology, 2024).
“Also recorded” adds a separate entry of the source. Read-outs that look alike come from different tables or passages of the source.

Columns and labels:
786-O (human RCC) cells = test: In vitro cytotoxicity, MTT assay, in absence or presence of neutrophil elastase; type: cell-based; conditions: 72 h exposure
Procedure: (§1) 786-O (human RCC), HT-29 (human CRC), NCI-H292 (human NSCLC), NCI-H69 (human SCLC), MX-1 (human TNBC), and SUM149PT (human IBC) cells were acquired from ATCC and cultured according to the provider’s instructions.
(§2) The in vitro cytotoxicity of the SMDCs in comparison to the respective payloads was tested in a panel of cancer cell lines after a 72 h continuous exposure in presence or absence of 20 nM neutrophil elastase using MTT assays (ATCC). IC50 values were determined as the concentration of compound required for 50% inhibition of cell viability.

HT-29 (human CRC) cells = test: as above; type: cell-based; conditions: 72 h exposure
Procedure: as §1, §2

[1] = tested on: NCI-H292 (human NSCLC) cells; test: as above; type: cell-based; conditions: 72 h exposure
Procedure: as §1, §2

[2] = tested on: SUM149PT (human IBC) cells; test: as above; type: cell-based; conditions: 72 h exposure
Procedure: as §1, §2

[3] = target: T1, human neutrophil elastase (Homo sapiens, UniProt P08246); test: Human neutrophil elastase cleavability assay; type: biochemical; conditions: 5 µM SMDC, 20, 40, 60 nM NE, 1 h, 37°C
T1 sequence (P08246 30-267): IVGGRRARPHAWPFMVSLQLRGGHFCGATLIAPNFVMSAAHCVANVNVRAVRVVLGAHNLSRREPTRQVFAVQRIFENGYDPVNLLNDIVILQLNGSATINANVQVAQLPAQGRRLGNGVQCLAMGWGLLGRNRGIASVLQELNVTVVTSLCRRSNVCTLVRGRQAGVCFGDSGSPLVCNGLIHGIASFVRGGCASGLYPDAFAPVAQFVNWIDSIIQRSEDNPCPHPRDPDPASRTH
Procedure: For the NE cleavability assay, the SMDC test compound was added to buffer (150 mM NaCl, 10 mM CaCl2, 0.05% BSA) to a final concentration of 5 µM (0.5% DMSO). The reaction was started by adding different concentrations of human NE (0, 20, 40, 60 nM) to the reaction vials. After incubation for 1 h at 37°C, the enzymatic reaction was stopped by precipitation in 50% ACN. Subsequently, the samples were subjected to HPLC-MS analysis to determine the concentration of test compound and of its metabolite.

NCI H69 SCLC xenograft = test: In vivo efficacy in NCI H69 SCLC xenograft model; design: species or system mice; conditions: for Body weight changes: NCI H69 model, QWx2 (4: 5 mg/kg; 6: 40 mg/kg)
Procedure: For the NCI H69 study, immunocompromised mice were inoculated subcutaneously with 1.3 × 10^6 NCI H69 cells in 50% Matrigel/50% Media on day 0. Treatment was started at a mean tumor area in the range of […] in the NCI H69 model (n = 8/group, compound 4 at 5 mg/kg i. v., QW, and compound 6 at 40 mg/kg i. v., QW). In an independent experiment in the same CDX xenograft model compound 3 was tested at 10 mg/kg i. v., QW.

[4] = Intravenous pharmacokinetics in rat; type: in vivo; conditions: male Wistar rats, 0.5 mg/kg SMDC i.v., plasma; for AUC(0-inf) / half-life / clearance / Vd: rat, iv; for clearance: read-out: CLp; for Vd: read-out: Vss
Procedure: Pharmacokinetic properties of SMDCs and their respective payloads were characterized in rats. Briefly, male Wistar rats (n = 3) were given a 0.5 mg/kg dose of SMDC formulated in plasma/DMSO (99:1) intravenously (i.v.) via tail vein. Blood was collected at pre-dose, 2, 5, 15, 30, 45, 60 min, 2, 4, 7, 24 h post-dose and then processed to plasma. Plasma was frozen at < −20°C until sample analysis. Plasma samples were analyzed for concentrations of SMDCs and their respective released payloads by LC-MS/MS.
(§3) Pharmacokinetics of SMDCs and their respective payloads from in vivo studies were determined using mean concentration-time profiles. All pharmacokinetic parameters were calculated by non-compartmental methods as previously described ([Perrier and Gibaldi, 1982]).

[5] = Plasma and tumor pharmacokinetics in NCI H69 tumor-bearing mice; type: in vivo; conditions: single dose Compound 3 10 mg/kg IV, analyte conjugate 3 or released payload 8
Procedure: In order to assess the selective concentration of payload to tumor tissue, the pharmacokinetic properties of the SMDC 3 and its payload 8, in plasma and tumor was also characterized in female NMRI nu/nu xenograft mice (Taconic M&B A/S) bearing NCI H69 human small cell lung cancer tumors. The mice were treated i. v. via the tail vein with a single dose of 3 at 10 mg/kg. Plasma and tumor samples were collected at 0.25, 1, 7, and 24 h after treatment (n = 2 mice/group at each time point) and were stored frozen at < −20°C until sample analysis. Concentrations of the SMDCs and their respective payloads were measured by LC-MS/MS.
as §3

Stability in rat plasma = type: in vitro ADME; conditions: 37 °C
Procedure: The SMDC compounds 2, 3, 4, 5 and 6 (1 mg) were dissolved in acetonitrile/DMSO (1:1, 0.5 mL). While vortexing, 20 µL of this solution was added to 1 mL rat plasma at 37 °C. The incubation was stopped at respective time intervals by adding acetonitrile/buffer pH 3 (80:20) and the test compounds and formation of degradation products were analyzed by LC and LC/MS.

[6] = Stability in human plasma; type: in vitro ADME; conditions: 37 °C
[7] = Hydrolytic stability in PBS buffer at pH 7.4; type: physicochemical; conditions: PBS pH 7.4, 37 °C, 24 h
Procedure: For hydrolytic stability measurement, compounds 2, 3, 4, 5 and 6 (0.15 mg) were dissolved in acetonitrile/DMSO (4:1, 0.5 mL) and 1 mL of PBS buffer at pH 7.4 was then added. The sample solution was analyzed by HPLC to determine the amount of the test compound and the formation of degradation products over a period of 24 h at 37 °C.

[8] = with 20 nM neutrophil elastase, read-out: IC50 786–0 + neutrophil elastase
[9] = without neutrophil elastase, read-out: IC50 786–0
[10] = with 20 nM neutrophil elastase, read-out: IC50 HT29 + neutrophil elastase
[11] = without neutrophil elastase, read-out: IC50 HT29
[12] = with 20 nM neutrophil elastase, read-out: IC50 NCI-H292 + neutrophil elastase
[13] = without neutrophil elastase, read-out: IC50 NCI-H292
[14] = with 20 nM neutrophil elastase, read-out: IC50 SUM149 PT + neutrophil elastase
[15] = without neutrophil elastase, read-out: IC50 SUM149PT

SMILES	IC50 (786-O (human RCC) cells; [8]) [nM]	IC50 (786-O (human RCC) cells; [9]) [nM]	IC50 (HT-29 (human CRC) cells; [10]) [nM]	IC50 (HT-29 (human CRC) cells; [11]) [nM]	IC50 [1, 12] [nM]	IC50 [1, 13] [nM]	IC50 [2, 14] [nM]	IC50 [2, 15] [nM]	Vss [4]	Stability in rat plasma (Stability in rat plasma)	Stability in human plasma [6]	Stability in buffer pH 7.4 [7]	Body weight changes (NCI H69 SCLC xenograft)	AUC(0-inf) [4] [µM·h]	half-life [4] [min]	clearance [4] [mL/min/kg]	Vd [4] [L/kg]	also measured
CCCNC(=O)Nc1cccc(S(=O)(=O)Nc2cccc([C@@H](CC(=O)O)NC(=O)Nc3ccc(NC(=O)NCCOCCOCCOCCC(=O)N[C@@H](CC(=O)O)C(=O)N4CCC[C@H]4C(=O)N[C@H](C(=O)N=S(C)(=O)Cc4cc5cc(c4)OC(C)CCOc4cc(F)ccc4-c4nc(ncc4F)N5)C(C)C)cc3)c2)c1 (stereo partly drawn) [Compound 3]	3.1	> 1000	1.9	990	4.5	880	1.2	770	comparable to plasma volume	highly stable	highly stable	highly stable	–	–	–	–	–	Cleavage by human NE [3]: essentially completely cleaved; Tumor growth NCI H69 (NCI H69 SCLC xenograft; 10 mg/kg i.v. weekly, 3 treatment cycles): No significant inhibition; payload/parent AUC ratio ([4]; molar basis, 0.5 mg/kg): 0.307; AUC(0-inf) ([4]; in vivo): 0.801 ± 0.126 µM·h; half-life ([4]; in vivo): 14.4 ± 3 min; clearance ([4]; in vivo): 6.6 ± 0.95 mL/min/kg; Vd ([4]; in vivo): 0.0366 ± 0.0053 L/kg; AUC(0-t) ([5]; mouse, in vivo, plasma): 43 µM·h; Cmax ([5]; mouse, in vivo, plasma): 49 µM; tumor/plasma AUC ratio [5]: 0.126
CCCNC(=O)Nc1cccc(S(=O)(=O)Nc2cccc([C@@H](CC(=O)O)NC(=O)Nc3ccc(NC(=O)NCCOCCOCCOCCC(=O)N[C@@H](CC(=O)O)C(=O)N4CCC[C@H]4C(=O)N[C@H](C(=O)O[C@@H](c4ccccc4)[C@@H](C)NC(=O)[C@H](C)[C@@H](OC)[C@@H]4CCCN4C(=O)C[C@@H](OC)[C@H]([C@@H](C)CC)N(C)C(=O)[C@@H](NC(=O)[C@@H](NC)C(C)C)C(C)C)C(C)C)cc3)c2)c1 [Compound 4]	6.6	660	0.43	78	0.35	71	0.51	50	–	highly stable	highly stable	highly stable	very minor	3.03 ± 0.11	138 ± 57	1.47 ± 0.06	0.157 ± 0.015	–
CCCNC(=O)Nc1cccc(S(=O)(=O)Nc2cccc([C@@H](CC(=O)O)NC(=O)Nc3ccc(NC(=O)NCCOCCOCCOCCC(=O)N[C@@H](CC(=O)O)C(=O)N4CCC[C@H]4C(=O)N[C@H](C(=O)N[C@@H](CCN(C(=O)CO)[C@@H](c4cc(-c5cc(F)ccc5F)cn4Cc4ccccc4)C(C)(C)C)C(=O)NC)C(C)C)cc3)c2)c1 [Compound 6]	8.7	–	1.7	–	1.3	–	0.6	–	comparable to plasma volume	highly stable	highly stable	Very small fractions of a degradation product; also recorded: highly stable	very minor	2.98 ± 0.25	26.5 ± 1.38	1.69 ± 0.15	0.0377 ± 0.005	–
